One test concerns the target RBP4 (UniProt P02753). The settings on record: cited from earlier work.
For test [1], the target named is Recombinant mouse RBP4 with 6XHis Tag (mouse) (UniProt Q00724). Description: SPR; mouse RBP4 amine-coupled to a CM5 chip (target 1,200 RU), Biacore S200; peptides as analytes, 0.8-26.6 uM; running buffer PBST (0.05% Tween20); 25 C; contact 120 s, dissociation 300 s; Kd from the site-specific binding fit Y=(Bmax*X)/(Kd+X). On the technique in general: Surface plasmon resonance follows binding to a sensor surface in real time, without labels.

Take STRA6 (from UniProt Q9BX79): in the test with RBP4, the Kd is 22.4 µM.

“mouse RBPR2-Y295P mutant peptide (from UniProt Q9DBN1 280-321)”: in test [1], the Kd came to 34.9 µM.

On to “mouse RBPR2-L296S mutant peptide (from UniProt Q9DBN1 280-321)”, for which the Kd in test [1] is 21.3 µM.

For the substance “mouse RBPR2-S294A mutant peptide (from UniProt Q9DBN1 280-321)”, the Kd in test [1] stood at 89.3 µM.

A word on the Kd: it is a measure of binding affinity in units of concentration.

Source of the values: article PMC9992173, “Mapping of the extracellular RBP4 ligand binding domain on the RBPR2 receptor for Vitamin A transport” (Frontiers in Cell and Developmental Biology, 2023).
